The experiment deals with human IL-17A (human) (UniProt Q16552). The experiment can be described thus: BLI Octet Red 96; Fab on anti-FABCH1 sensors, IL-17A 30 µg/ml as analyte, 1:1 model.

In patent US20210332120A1 one finds koff data, which are given here for one molecule.

The term koff denotes the first-order rate constant of dissociation. High values mean fast dissociation, low ones slow dissociation.

human IL-17A (human), sequence (Q16552 20-155 limits assumed): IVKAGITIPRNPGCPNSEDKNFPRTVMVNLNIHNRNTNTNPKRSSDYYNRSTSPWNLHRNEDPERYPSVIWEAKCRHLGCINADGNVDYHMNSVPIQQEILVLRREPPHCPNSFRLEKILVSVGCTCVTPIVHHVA

B1: 3VHHVK4B11 Fab (Fab, part only; not given: Light chain VK4B11, tags, not shown: small tags and cut ends)
heavy: QVQLQQSGGGSVQAGGSLRLSCAASGGTFATSPMGWLRQAPGKEREFVAAISPSGGDRIYDDSVKGRFTISRDNAGYFIYLQMNSLKPEDTARYYCAVRRRFDGTSYYTGDYDSWGQGTLVTVSS
Take B1: the koff was below 2.27e-06 s⁻¹.
